Measurements: US20160331662A1 (UAB RESEARCH FOUNDATION, published 2016)

B2: iSRCR123 (receptor, not shown: small tags and cut ends)
chain: not shown
notes: domain: SRCR123; also called SRCRs; iSRCRs

Experiments:
[1] = molecular target: B2; assay: SPR, analyte over immobilized iSRCR1; quantity and unit not printed beside the number, unit taken from the paragraph's 'nanomolar affinities'
[2] = molecular target: B2; assay: SPR, analyte over immobilized iSRCR123; quantity and unit not printed beside the number, told as 'nanomolar affinities'
[3] = molecular target: T1, A3VP1^AgI/II (Streptococcus mutans UA159, UniProt P23504 386-874); assay: SPR, analyte over ligand immobilized on CM5 chip, 1:1 Langmuir model; SPR with calcium; immobilized iSRCR1, not deglycosylated
T1 construct: domain: A3VP1; also called A3VP1 of AgI/II
T1 sequence: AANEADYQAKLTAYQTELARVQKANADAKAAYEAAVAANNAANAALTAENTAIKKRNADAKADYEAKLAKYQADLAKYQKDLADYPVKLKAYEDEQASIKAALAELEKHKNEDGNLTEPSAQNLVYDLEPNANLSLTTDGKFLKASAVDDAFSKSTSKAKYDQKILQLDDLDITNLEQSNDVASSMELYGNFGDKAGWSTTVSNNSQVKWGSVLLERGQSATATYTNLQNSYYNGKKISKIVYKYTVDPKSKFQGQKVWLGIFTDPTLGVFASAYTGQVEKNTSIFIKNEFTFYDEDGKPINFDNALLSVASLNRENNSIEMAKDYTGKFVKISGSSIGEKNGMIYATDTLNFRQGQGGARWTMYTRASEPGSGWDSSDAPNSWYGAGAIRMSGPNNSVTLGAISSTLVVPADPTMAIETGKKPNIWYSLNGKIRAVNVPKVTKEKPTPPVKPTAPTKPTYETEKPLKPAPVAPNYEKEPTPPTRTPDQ

[4] = molecular target: T2, FL^SspB (S. gordonii DL1 SspB, residues 39-1433) (Streptococcus gordonii DL1, UniProt P16952 39-1433); assay: as above
T2 construct: range 39-1433
T2 sequence: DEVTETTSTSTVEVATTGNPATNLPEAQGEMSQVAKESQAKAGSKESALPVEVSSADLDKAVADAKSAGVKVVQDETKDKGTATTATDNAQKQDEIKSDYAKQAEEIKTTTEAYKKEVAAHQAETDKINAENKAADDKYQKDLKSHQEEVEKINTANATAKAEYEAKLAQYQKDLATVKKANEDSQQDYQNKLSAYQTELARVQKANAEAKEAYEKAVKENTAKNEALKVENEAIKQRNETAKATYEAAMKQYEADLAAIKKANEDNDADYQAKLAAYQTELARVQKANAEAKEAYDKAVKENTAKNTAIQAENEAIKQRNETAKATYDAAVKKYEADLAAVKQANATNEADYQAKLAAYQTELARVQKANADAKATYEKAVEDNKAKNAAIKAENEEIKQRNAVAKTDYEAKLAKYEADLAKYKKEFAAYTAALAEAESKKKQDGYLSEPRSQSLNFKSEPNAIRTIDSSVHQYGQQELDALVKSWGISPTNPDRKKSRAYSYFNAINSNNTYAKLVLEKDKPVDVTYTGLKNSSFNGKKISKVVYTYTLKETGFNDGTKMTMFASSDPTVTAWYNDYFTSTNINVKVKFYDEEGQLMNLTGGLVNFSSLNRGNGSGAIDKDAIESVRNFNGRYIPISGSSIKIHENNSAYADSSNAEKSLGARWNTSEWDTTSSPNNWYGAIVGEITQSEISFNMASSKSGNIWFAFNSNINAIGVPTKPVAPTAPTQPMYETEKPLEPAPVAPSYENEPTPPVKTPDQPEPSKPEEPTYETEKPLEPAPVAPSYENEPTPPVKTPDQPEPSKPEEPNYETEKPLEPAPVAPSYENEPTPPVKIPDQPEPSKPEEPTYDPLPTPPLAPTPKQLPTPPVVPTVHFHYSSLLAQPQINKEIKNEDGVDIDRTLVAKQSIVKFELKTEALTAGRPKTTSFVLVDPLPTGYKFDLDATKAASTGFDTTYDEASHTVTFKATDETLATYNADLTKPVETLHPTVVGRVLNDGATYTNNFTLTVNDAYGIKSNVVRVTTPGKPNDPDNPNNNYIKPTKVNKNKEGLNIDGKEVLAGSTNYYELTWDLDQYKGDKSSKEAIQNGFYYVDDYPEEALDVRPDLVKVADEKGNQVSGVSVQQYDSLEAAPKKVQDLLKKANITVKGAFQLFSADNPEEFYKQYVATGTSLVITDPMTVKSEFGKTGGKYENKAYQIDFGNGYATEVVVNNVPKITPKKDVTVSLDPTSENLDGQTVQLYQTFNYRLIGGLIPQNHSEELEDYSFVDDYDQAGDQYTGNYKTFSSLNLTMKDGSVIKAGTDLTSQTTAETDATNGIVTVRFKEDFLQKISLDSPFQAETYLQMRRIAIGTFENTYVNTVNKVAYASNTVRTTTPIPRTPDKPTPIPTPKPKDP

[5] = molecular target: T3, C123^AgI/II (Streptococcus mutans UA159, UniProt P23504 1000-1486); assay: as above
T3 construct: domain: C123
T3 sequence: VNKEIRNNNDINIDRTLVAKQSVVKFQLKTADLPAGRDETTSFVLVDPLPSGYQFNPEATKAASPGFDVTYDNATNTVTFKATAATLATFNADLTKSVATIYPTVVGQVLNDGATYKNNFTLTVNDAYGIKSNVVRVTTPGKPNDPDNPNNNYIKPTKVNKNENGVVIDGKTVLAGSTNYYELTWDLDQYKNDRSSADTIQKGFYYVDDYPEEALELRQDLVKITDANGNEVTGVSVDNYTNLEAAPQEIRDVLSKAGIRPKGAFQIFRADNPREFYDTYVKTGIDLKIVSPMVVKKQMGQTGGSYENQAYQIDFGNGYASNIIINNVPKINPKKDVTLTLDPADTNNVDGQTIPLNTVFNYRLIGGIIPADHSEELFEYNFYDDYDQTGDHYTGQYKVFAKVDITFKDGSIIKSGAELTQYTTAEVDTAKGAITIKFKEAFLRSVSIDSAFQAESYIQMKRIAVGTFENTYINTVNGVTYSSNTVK

[6] = molecular target: T4, FL^AgI/II (S. mutans UA159 Antigen I/II, full length recombinant construct) (Streptococcus mutans UA159, UniProt P23504 39-1562); assay: as above
T4 construct: also called CG14
T4 sequence (P23504 39-1562): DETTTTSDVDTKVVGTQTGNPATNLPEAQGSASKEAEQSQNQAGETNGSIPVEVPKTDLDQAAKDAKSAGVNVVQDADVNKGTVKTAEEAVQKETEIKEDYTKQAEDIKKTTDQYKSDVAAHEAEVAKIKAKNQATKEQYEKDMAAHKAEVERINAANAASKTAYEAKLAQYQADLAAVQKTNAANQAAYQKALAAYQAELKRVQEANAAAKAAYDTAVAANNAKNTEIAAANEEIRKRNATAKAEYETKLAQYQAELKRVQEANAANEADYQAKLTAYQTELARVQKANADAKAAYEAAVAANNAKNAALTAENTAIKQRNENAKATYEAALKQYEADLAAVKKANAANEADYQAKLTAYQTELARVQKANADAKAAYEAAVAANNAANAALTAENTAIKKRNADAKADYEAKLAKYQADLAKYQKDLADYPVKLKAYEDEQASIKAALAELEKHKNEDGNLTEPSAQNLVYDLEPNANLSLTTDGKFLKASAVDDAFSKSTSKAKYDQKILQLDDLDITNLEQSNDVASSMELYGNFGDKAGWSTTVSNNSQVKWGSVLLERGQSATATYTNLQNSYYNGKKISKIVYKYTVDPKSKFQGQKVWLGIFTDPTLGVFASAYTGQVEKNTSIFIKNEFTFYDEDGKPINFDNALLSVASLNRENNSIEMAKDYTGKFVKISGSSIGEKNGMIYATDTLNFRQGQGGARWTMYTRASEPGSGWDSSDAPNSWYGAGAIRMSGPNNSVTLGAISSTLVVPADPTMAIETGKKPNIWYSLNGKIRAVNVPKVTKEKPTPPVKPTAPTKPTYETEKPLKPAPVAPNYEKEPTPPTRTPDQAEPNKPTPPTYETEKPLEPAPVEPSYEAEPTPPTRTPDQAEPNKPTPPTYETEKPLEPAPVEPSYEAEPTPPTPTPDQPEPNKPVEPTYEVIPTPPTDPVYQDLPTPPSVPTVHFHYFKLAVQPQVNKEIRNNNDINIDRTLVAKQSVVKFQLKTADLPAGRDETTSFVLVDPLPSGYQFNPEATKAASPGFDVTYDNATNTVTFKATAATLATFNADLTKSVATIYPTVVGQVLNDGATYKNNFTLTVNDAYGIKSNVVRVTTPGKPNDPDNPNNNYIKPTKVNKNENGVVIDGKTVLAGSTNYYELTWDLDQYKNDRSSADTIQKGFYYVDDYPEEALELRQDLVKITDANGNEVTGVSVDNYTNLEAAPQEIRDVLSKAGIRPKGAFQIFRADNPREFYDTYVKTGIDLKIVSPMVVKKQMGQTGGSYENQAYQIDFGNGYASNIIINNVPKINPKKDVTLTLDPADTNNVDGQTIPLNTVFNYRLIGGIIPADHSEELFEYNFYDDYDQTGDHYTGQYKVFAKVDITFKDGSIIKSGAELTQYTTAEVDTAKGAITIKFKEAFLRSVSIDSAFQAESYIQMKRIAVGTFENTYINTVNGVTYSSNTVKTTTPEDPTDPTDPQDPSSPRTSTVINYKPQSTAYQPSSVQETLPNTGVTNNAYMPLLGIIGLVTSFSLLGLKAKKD

[7] = molecular target: T1, A3VP1^AgI/II; assay: SPR, analyte over ligand immobilized on CM5 chip, 1:1 Langmuir model
[8] = molecular target: T2, FL^SspB (S. gordonii DL1 SspB, residues …); assay: as above
[9] = molecular target: T3, C123^AgI/II; assay: as above
[10] = molecular target: T4, FL^AgI/II (S. mutans UA159 Antigen …); assay: as above
[11] = molecular target: the molecule itself; assay: SPR, analyte over immobilized iSRCR123; quantity and unit not printed beside the number, told as 'nanomolar affinities'

Chain of iSRCR123 (Q9UGM3 102-463 limits assumed): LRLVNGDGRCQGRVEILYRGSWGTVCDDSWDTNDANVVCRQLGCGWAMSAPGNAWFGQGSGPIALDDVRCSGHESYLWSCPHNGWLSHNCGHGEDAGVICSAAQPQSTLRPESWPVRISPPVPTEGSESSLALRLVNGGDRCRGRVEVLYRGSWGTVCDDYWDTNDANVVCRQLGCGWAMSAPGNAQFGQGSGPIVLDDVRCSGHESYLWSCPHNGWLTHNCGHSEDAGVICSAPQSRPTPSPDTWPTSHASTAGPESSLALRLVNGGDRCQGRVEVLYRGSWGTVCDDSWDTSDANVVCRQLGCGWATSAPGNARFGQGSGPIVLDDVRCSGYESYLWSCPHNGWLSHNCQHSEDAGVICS

B1: iSRCR1 (receptor, not shown: small tags and cut ends)
chain: not shown
notes: domain: SRCR1; also called SRCRs; iSRCRs
For B1, the Kd [1] was 5.68 nM, the Kd [2] was 1.2 nM and the Ka [3] was 8.57e+06 M⁻¹. It also gave a Kd [3] of 117 nM, a koff [3] of 0.00327 s⁻¹ and a kon [3] of 28000 M⁻¹ s⁻¹. It also gave a Ka [4] of 3.91e+06 M⁻¹, a Kd [4] of 256 nM and a koff [4] of 0.00237 s⁻¹. For the same binder, the kon [4] was 9250 M⁻¹ s⁻¹, the Ka [5] was 6.46e+06 M⁻¹ and the Kd [5] was 151 nM. The koff [5] was 0.00232 s⁻¹, the kon [5] was 15400 M⁻¹ s⁻¹ and the Ka [6] was 1.31e+08 M⁻¹. The Kd [6] was 7.69 nM, the koff [6] was 0.000976 s⁻¹ and the kon [6] was 127000 M⁻¹ s⁻¹.

Binder B2 has a Ka [7] of 7.98e+06 M⁻¹, a Kd [7] of 125 nM and a koff [7] of 0.00249 s⁻¹. For the same binder, the kon [7] was 19900 M⁻¹ s⁻¹, the Ka [8] was 2.38e+07 M⁻¹ and the Kd [8] was 42.1 nM. The koff [8] was 0.000759 s⁻¹, the kon [8] was 18200 M⁻¹ s⁻¹ and the Ka [9] was 1.15e+07 M⁻¹. It also gave a Kd [9] of 87 nM, a koff [9] of 0.000721 s⁻¹ and a kon [9] of 8290 M⁻¹ s⁻¹. It also gave a Ka [10] of 1.34e+08 M⁻¹, a Kd [10] of 7.46 nM and a koff [10] of 0.000743 s⁻¹. It also gave a kon [10] of 99700 M⁻¹ s⁻¹ and a Kd [11] of 6.72 nM.
